{
  "source": "patent US20240279845",
  "tested_on": "disulfide cyclized peptide Mpa-Tyr-II-Pro-Mea",
  "data": [
    {"substance": "thrombin", "values": [
      {"measurement": "thrombin activity in screen at compound concentration of around 10 µM (fluorogenic substrate)", "result": "reduced the thrombin activity 52%"}
    ]}
  ]
}
